Target: DLG1_1, Q12959
Assay: holdup assay
Design: key: below the threshold = too weak to quantify, mostly under pKd 3.1 to 4
Details: plain residues with an end cap or a label only (N-terminal biotin on a linker: ado-ado)

| Binder | pKd |
| --- | --- |
| AKPSRISTVV [IQSEC2, Q5JU85] | 4.81 |
| DDENIRTSDV [PLEKHA2, Q9HB19] | 3.8 |

Target: T1, RADIL, Q96JH8
T1 sequence (Q96JH8 971-1071, limits assumed, looked up): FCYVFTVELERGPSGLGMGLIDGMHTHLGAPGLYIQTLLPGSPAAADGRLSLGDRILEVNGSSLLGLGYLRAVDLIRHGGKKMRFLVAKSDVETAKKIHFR
Assay: holdup assay
Design: key: below the threshold = too weak to quantify, mostly under pKd 3.1 to 4
Details: plain residues with an end cap or a label only (N-terminal biotin on a linker: ado-ado)

| Binder | pKd |
| --- | --- |
| AKPSRISTVV [IQSEC2, Q5JU85] | 4.32 |
| DDENIRTSDV [PLEKHA2, Q9HB19] | below the threshold |

Target: GRIP2_5, Q9C0E4
Sequence (Q9C0E4 544-642): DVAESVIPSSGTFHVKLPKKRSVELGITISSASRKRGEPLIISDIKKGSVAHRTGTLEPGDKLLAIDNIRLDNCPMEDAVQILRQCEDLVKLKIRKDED
Assay: holdup assay
Design: key: below the threshold = too weak to quantify, mostly under pKd 3.1 to 4
Details: plain residues with an end cap or a label only (N-terminal biotin on a linker: ado-ado)

| Binder | pKd |
| --- | --- |
| AKPSRISTVV [IQSEC2, Q5JU85] | below the threshold |
| DDENIRTSDV [PLEKHA2, Q9HB19] | below the threshold |

Target: Inadl_5, Q8NI35
Sequence (Q8NI35 673-780): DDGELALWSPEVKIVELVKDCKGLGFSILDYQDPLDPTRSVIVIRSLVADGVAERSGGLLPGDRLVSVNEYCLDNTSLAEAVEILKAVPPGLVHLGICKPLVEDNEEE
Assay: holdup assay
Design: key: below the threshold = too weak to quantify, mostly under pKd 3.1 to 4
Details: plain residues with an end cap or a label only (N-terminal biotin on a linker: ado-ado)

| Binder | pKd |
| --- | --- |
| AKPSRISTVV [IQSEC2, Q5JU85] | 4.21 |
| DDENIRTSDV [PLEKHA2, Q9HB19] | below the threshold |

Target: T2, PDZD2_2, O15018
T2 sequence (O15018 329-429, limits assumed, looked up): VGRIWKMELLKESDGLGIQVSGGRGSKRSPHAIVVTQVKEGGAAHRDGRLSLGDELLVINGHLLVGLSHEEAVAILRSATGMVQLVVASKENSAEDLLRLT
Assay: holdup assay
Design: key: below the threshold = too weak to quantify, mostly under pKd 3.1 to 4
Details: plain residues with an end cap or a label only (N-terminal biotin on a linker: ado-ado)

| Binder | pKd |
| --- | --- |
| AKPSRISTVV [IQSEC2, Q5JU85] | 4.29 |
| DDENIRTSDV [PLEKHA2, Q9HB19] | 5.74 |

Target: T3, APBA3_1, O96018
T3 sequence (O96018 389-490, limits assumed, looked up): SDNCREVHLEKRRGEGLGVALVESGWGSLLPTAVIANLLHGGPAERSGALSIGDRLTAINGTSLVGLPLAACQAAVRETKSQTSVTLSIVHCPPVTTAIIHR
Assay: holdup assay
Design: key: below the threshold = too weak to quantify, mostly under pKd 3.1 to 4
Details: plain residues with an end cap or a label only (N-terminal biotin on a linker: ado-ado)

| Binder | pKd |
| --- | --- |
| AKPSRISTVV [IQSEC2, Q5JU85] | below the threshold |
| DDENIRTSDV [PLEKHA2, Q9HB19] | below the threshold |

Target: T4, TIAM2, Q8IVF5
T4 sequence (Q8IVF5 885-986, limits assumed, looked up): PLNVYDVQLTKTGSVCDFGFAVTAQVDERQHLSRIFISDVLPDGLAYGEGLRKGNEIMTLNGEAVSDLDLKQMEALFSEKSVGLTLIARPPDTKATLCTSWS
Assay: holdup assay
Design: key: below the threshold = too weak to quantify, mostly under pKd 3.1 to 4
Details: plain residues with an end cap or a label only (N-terminal biotin on a linker: ado-ado)

| Binder | pKd |
| --- | --- |
| AKPSRISTVV [IQSEC2, Q5JU85] | 3.91 |
| DDENIRTSDV [PLEKHA2, Q9HB19] | below the threshold |

Target: T5, SNTG1, Q9NSN8
T5 sequence (Q9NSN8 52-150, limits assumed, looked up): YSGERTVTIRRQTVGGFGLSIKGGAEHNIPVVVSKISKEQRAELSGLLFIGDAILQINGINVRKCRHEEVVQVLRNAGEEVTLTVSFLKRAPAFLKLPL
Assay: holdup assay
Design: key: below the threshold = too weak to quantify, mostly under pKd 3.1 to 4
Details: plain residues with an end cap or a label only (N-terminal biotin on a linker: ado-ado)

| Binder | pKd |
| --- | --- |
| AKPSRISTVV [IQSEC2, Q5JU85] | below the threshold |
| DDENIRTSDV [PLEKHA2, Q9HB19] | 4.88 |

Target: T6, LNX2_3, Q8N448
T6 sequence (Q8N448 463-564, limits assumed, looked up): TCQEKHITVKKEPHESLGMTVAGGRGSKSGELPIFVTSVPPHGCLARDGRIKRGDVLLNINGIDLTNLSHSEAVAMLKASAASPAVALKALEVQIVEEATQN
Assay: holdup assay
Design: key: below the threshold = too weak to quantify, mostly under pKd 3.1 to 4
Details: plain residues with an end cap or a label only (N-terminal biotin on a linker: ado-ado)

| Binder | pKd |
| --- | --- |
| AKPSRISTVV [IQSEC2, Q5JU85] | below the threshold |
| DDENIRTSDV [PLEKHA2, Q9HB19] | below the threshold |

Target: T7, MPP6, Q9NZW5
T7 sequence (Q9NZW5 125-219, limits assumed, looked up): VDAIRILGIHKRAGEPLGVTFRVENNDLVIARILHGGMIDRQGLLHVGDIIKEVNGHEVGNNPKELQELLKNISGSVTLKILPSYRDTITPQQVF
Assay: holdup assay
Design: key: below the threshold = too weak to quantify, mostly under pKd 3.1 to 4
Details: plain residues with an end cap or a label only (N-terminal biotin on a linker: ado-ado)

| Binder | pKd |
| --- | --- |
| AKPSRISTVV [IQSEC2, Q5JU85] | below the threshold |
| DDENIRTSDV [PLEKHA2, Q9HB19] | below the threshold |

Target: Inadl_2, Q8NI35
Sequence (Q8NI35 238-335): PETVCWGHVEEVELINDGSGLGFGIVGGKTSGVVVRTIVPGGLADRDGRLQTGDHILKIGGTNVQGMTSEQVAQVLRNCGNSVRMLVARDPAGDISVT
Assay: holdup assay
Design: key: below the threshold = too weak to quantify, mostly under pKd 3.1 to 4
Details: plain residues with an end cap or a label only (N-terminal biotin on a linker: ado-ado)

| Binder | pKd |
| --- | --- |
| AKPSRISTVV [IQSEC2, Q5JU85] | below the threshold |
| DDENIRTSDV [PLEKHA2, Q9HB19] | below the threshold |

Target: LIMK2, P53671
Sequence (P53671 143-248): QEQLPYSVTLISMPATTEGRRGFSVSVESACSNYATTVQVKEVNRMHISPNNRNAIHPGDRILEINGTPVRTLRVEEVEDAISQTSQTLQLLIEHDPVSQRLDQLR
Assay: holdup assay
Design: key: below the threshold = too weak to quantify, mostly under pKd 3.1 to 4
Details: plain residues with an end cap or a label only (N-terminal biotin on a linker: ado-ado)

| Binder | pKd |
| --- | --- |
| AKPSRISTVV [IQSEC2, Q5JU85] | below the threshold |
| DDENIRTSDV [PLEKHA2, Q9HB19] | below the threshold |

Target: T8, SNTB1, Q13884
T8 sequence (Q13884 107-205, limits assumed, looked up): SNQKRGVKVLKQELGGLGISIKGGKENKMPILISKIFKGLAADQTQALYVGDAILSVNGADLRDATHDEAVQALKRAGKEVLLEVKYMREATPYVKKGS
Assay: holdup assay
Design: key: below the threshold = too weak to quantify, mostly under pKd 3.1 to 4
Details: plain residues with an end cap or a label only (N-terminal biotin on a linker: ado-ado)

| Binder | pKd |
| --- | --- |
| AKPSRISTVV [IQSEC2, Q5JU85] | 4.16 |
| DDENIRTSDV [PLEKHA2, Q9HB19] | 5.37 |

Target: GRIP2_4, Q9C0E4
Sequence (Q9C0E4 446-548): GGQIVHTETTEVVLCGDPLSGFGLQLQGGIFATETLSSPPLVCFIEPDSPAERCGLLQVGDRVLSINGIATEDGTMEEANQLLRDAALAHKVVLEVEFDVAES
Assay: holdup assay
Design: key: below the threshold = too weak to quantify, mostly under pKd 3.1 to 4
Details: plain residues with an end cap or a label only (N-terminal biotin on a linker: ado-ado)

| Binder | pKd |
| --- | --- |
| AKPSRISTVV [IQSEC2, Q5JU85] | below the threshold |
| DDENIRTSDV [PLEKHA2, Q9HB19] | below the threshold |

Target: TJP1_3, Q07157
Sequence (Q07157 416-512): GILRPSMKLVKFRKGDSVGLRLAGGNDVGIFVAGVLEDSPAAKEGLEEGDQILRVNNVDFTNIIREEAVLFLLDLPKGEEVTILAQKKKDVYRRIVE
Assay: holdup assay
Design: key: below the threshold = too weak to quantify, mostly under pKd 3.1 to 4
Details: plain residues with an end cap or a label only (N-terminal biotin on a linker: ado-ado)

| Binder | pKd |
| --- | --- |
| AKPSRISTVV [IQSEC2, Q5JU85] | below the threshold |
| DDENIRTSDV [PLEKHA2, Q9HB19] | below the threshold |

Target: GRIP2_6, Q9C0E4
Sequence (Q9C0E4 648-740): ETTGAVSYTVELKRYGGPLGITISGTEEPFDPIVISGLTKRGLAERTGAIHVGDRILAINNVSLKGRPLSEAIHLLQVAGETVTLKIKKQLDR
Assay: holdup assay
Design: key: below the threshold = too weak to quantify, mostly under pKd 3.1 to 4
Details: plain residues with an end cap or a label only (N-terminal biotin on a linker: ado-ado)

| Binder | pKd |
| --- | --- |
| AKPSRISTVV [IQSEC2, Q5JU85] | below the threshold |
| DDENIRTSDV [PLEKHA2, Q9HB19] | below the threshold |

Target: PDLIM1, O00151
Sequence (O00151 1-87): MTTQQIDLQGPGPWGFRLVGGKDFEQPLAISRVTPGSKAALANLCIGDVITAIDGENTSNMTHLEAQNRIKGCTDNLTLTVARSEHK
Assay: holdup assay
Design: key: below the threshold = too weak to quantify, mostly under pKd 3.1 to 4
Details: plain residues with an end cap or a label only (N-terminal biotin on a linker: ado-ado)

| Binder | pKd |
| --- | --- |
| AKPSRISTVV [IQSEC2, Q5JU85] | below the threshold |
| DDENIRTSDV [PLEKHA2, Q9HB19] | below the threshold |

Target: T9, RAPGEF6, Q8TEU7
T9 sequence (Q8TEU7 525-625, limits assumed, looked up): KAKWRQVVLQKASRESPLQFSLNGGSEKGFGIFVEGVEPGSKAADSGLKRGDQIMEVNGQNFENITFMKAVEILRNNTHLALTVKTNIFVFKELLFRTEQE
Assay: holdup assay
Design: key: below the threshold = too weak to quantify, mostly under pKd 3.1 to 4
Details: plain residues with an end cap or a label only (N-terminal biotin on a linker: ado-ado)

| Binder | pKd |
| --- | --- |
| AKPSRISTVV [IQSEC2, Q5JU85] | below the threshold |
| DDENIRTSDV [PLEKHA2, Q9HB19] | below the threshold |

Target: T10, GRIP1_7, Q9Y3R0
T10 sequence (Q9Y3R0 999-1096, limits assumed, looked up): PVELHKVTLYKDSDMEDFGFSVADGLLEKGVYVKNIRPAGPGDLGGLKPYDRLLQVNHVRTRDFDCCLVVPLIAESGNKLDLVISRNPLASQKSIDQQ
Assay: holdup assay
Design: key: below the threshold = too weak to quantify, mostly under pKd 3.1 to 4
Details: plain residues with an end cap or a label only (N-terminal biotin on a linker: ado-ado)

| Binder | pKd |
| --- | --- |
| AKPSRISTVV [IQSEC2, Q5JU85] | below the threshold |
| DDENIRTSDV [PLEKHA2, Q9HB19] | below the threshold |

Target: DLG4_1, P78352
Sequence (P78352 62-152): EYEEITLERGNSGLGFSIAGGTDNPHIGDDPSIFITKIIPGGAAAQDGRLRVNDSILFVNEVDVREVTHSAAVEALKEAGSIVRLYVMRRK
Assay: holdup assay
Design: key: below the threshold = too weak to quantify, mostly under pKd 3.1 to 4
Details: plain residues with an end cap or a label only (N-terminal biotin on a linker: ado-ado)

| Binder | pKd |
| --- | --- |
| AKPSRISTVV [IQSEC2, Q5JU85] | 4.82 |
| DDENIRTSDV [PLEKHA2, Q9HB19] | 3.69 |

Target: Inadl_3, Q8NI35
Sequence (Q8NI35 359-469): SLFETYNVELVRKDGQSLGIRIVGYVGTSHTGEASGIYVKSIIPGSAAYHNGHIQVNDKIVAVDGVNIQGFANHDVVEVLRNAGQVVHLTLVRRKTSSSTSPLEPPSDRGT
Assay: holdup assay
Design: key: below the threshold = too weak to quantify, mostly under pKd 3.1 to 4
Details: plain residues with an end cap or a label only (N-terminal biotin on a linker: ado-ado)

| Binder | pKd |
| --- | --- |
| AKPSRISTVV [IQSEC2, Q5JU85] | 3.73 |
| DDENIRTSDV [PLEKHA2, Q9HB19] | below the threshold |

Target: DLG5_1, Q8TDM6
Sequence (Q8TDM6 617-713): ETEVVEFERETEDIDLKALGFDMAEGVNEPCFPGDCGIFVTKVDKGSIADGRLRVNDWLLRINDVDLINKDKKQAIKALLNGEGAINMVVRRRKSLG
Assay: holdup assay
Design: key: below the threshold = too weak to quantify, mostly under pKd 3.1 to 4
Details: plain residues with an end cap or a label only (N-terminal biotin on a linker: ado-ado)

| Binder | pKd |
| --- | --- |
| AKPSRISTVV [IQSEC2, Q5JU85] | below the threshold |
| DDENIRTSDV [PLEKHA2, Q9HB19] | below the threshold |

Target: FRMPD2_2, Q68DX3
Sequence (Q68DX3 944-1038): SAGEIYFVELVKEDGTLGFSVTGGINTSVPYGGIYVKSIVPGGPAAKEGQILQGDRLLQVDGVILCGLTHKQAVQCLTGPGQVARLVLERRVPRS
Assay: holdup assay
Design: key: below the threshold = too weak to quantify, mostly under pKd 3.1 to 4
Details: plain residues with an end cap or a label only (N-terminal biotin on a linker: ado-ado)

| Binder | pKd |
| --- | --- |
| AKPSRISTVV [IQSEC2, Q5JU85] | below the threshold |
| DDENIRTSDV [PLEKHA2, Q9HB19] | 3.82 |

Target: T11, APBA2_1, Q99767
T11 sequence (Q99767 563-664, limits assumed, looked up): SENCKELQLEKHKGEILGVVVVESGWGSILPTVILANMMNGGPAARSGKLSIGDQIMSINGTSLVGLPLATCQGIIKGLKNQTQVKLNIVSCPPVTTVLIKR
Assay: holdup assay
Design: key: below the threshold = too weak to quantify, mostly under pKd 3.1 to 4
Details: plain residues with an end cap or a label only (N-terminal biotin on a linker: ado-ado)

| Binder | pKd |
| --- | --- |
| AKPSRISTVV [IQSEC2, Q5JU85] | below the threshold |
| DDENIRTSDV [PLEKHA2, Q9HB19] | below the threshold |

Target: T12, HTRA4, P83105
T12 sequence (P83105 378-476, limits assumed, looked up): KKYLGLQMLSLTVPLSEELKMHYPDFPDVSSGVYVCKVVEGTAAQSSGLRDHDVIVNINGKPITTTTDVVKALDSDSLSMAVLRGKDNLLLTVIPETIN
Assay: holdup assay
Design: key: below the threshold = too weak to quantify, mostly under pKd 3.1 to 4
Details: plain residues with an end cap or a label only (N-terminal biotin on a linker: ado-ado)

| Binder | pKd |
| --- | --- |
| AKPSRISTVV [IQSEC2, Q5JU85] | below the threshold |
| DDENIRTSDV [PLEKHA2, Q9HB19] | below the threshold |
